Measurements published in patent publication US20190083612A1 (RINAT NEUROSCIENCE, published 2019).
Substitutions are numbered along the chain they refer to.

What was measured:
[1] = target: human PD-1 on primary human T cells (human) (UniProt Q15116); assay: cell-based or functional assay
[2] = target: T1, rat PD-1 on primary rat T cells (rat, UniProt D3ZIN8 25-287); assay: FACS, naive primary rat T cells
T1 sequence: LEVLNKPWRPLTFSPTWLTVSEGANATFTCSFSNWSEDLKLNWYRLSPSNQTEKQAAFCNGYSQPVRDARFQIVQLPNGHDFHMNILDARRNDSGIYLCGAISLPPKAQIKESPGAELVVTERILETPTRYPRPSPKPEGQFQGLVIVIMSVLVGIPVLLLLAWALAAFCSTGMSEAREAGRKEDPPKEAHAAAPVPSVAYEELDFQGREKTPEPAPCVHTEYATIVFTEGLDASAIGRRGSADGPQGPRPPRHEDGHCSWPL

[3] = target: human PD-1 on primary human T cells (human) (UniProt Q15116); assay: FACS, naive primary human T cells
[4] = target: T1, rat PD-1 on primary rat T cells; assay: FACS, activated primary rat T cells
[5] = target: human PD-1 on primary human T cells (human) (UniProt Q15116); assay: FACS, activated primary human T cells
[6] = target: cynomolgus monkey PD-1 on primary cynomolgus monkey T cells (cynomolgus monkey) (UniProt B0LAJ3); assay: FACS, naive primary cynomolgus monkey T cells
[7] = target: cynomolgus monkey PD-1 on primary cynomolgus monkey T cells (cynomolgus monkey) (UniProt B0LAJ3); assay: FACS, activated primary cynomolgus monkey T cells
[8] = target: T2, human PD-1 (hPD-1) monomer (human, UniProt Q15116 25-167); assay: SPR, human PD-1, 25 C
T2 construct: also called hu-PD-1; not shown: His tag (His-tagged monomer)

[9] = target: T3, hPD-1-hFc1 (R&D systems cat. no. 1086PD) (human, UniProt Q15116 25-167); assay: SPR (Biacore 2000), Fab over anti-hFc-captured PD-1-hFc1, 25 C
T3 construct: Bought; not shown: human IgG1 Fc (hFc1)
Procedure: (§1) All interaction analysis was performed on label-free biosensors at 25° C. unless stated otherwise. Surface plasmon resonance biosensors (ProteOn-XPR™ from BioRad™, and Biacore 2000™ and Biacore T200™ from GE Life Sciences) were used to study human and cynomolgus monkey PD-1 and a biolayer interferometry biosensor (Octet-Red384, Fortebio/Pall Life Sciences) was used to study mouse PD-1. ProteOn experiments were performed in PBS pH 7.4+0.01% Tween-20 (PBST) running buffer. Biacore experiments were performed in 10 mM Hepes pH 7.4, 150 mM NaCl, 0.05% Tween-20 (HBST+) and Octet experiments were performed in HBST+ with 1 g/l BSA. The ProteOn data were processed in the ProteOn Manager software, the Biacore data were processed in Biaevaluation, and the Octet data were simply aligned to zero in the control software.
(§2) An anti-hFc polyclonal antibody was amine-coupled to the chip and used to capture approximately 90 RU hPD-1-hFc1 and 125 RU cynoPD-1-hFc1 on flow cells 2 and 3, leaving flow cell 1 blank (naked anti-hFc capture surface) to provide a reference channel. Recombinant purified Fabs were injected for two min as analyte at 0, 10, and 100 nM over freshly captured PD-1-hFc1 fusion proteins, allowing a 15-min dissociation time.

[10] = target: T4, cynoPD-1-hFc1 (prepared in-house) (cynomolgus monkey; human, UniProt B0LAJ3 25-170); assay: as above
Procedure: as §1, §2

[11] = target: T3, hPD-1-hFc1 (R&D systems cat. no. 1086PD); assay: SPR (Biacore 2000), Fab over anti-hFc-captured PD-1-hFc1, 25 C; 5% rule
Procedure: as §2

[12] = target: T4, cynoPD-1-hFc1 (prepared in-house); assay: as above
Procedure: as §2

[13] = target: T2, human PD-1 (hPD-1) monomer; assay: SPR (ProteOn), hPD-1 monomer over amine-coupled IgG, 25 C
Procedure: as §1
(§3) The surfaces for these experiments were prepared in three steps; (1) the ligand channels were minimally activated for two min using a freshly prepared mixture of the activation reagents at final 0.8 mM EDC and 0.2 mM sulfo-NHS in water, (2) the IgGs were coupled for three min at 15 μg/ml in 10 mM sodium acetate pH 4.5, and (3) excess reactive esters were blocked for three min with 1 M ethanolamine HCl pH 8.5. […] Association and dissociation times were 3 min and 20 min, respectively and all analytes were injected in duplicate binding cycles. Surfaces were regenerated with a cocktail of 2:1 v/v Pierce IgG elution buffer (pH 2.8):4 M NaCl.

[14] = target: T2, human PD-1 (hPD-1) monomer; assay: SPR (ProteOn), hPD-1 monomer over amine-coupled IgG, 25 C; 5% rule
Procedure: as §3
N=2 refers to two independent experiments on different chips.

[15] = target: T2, human PD-1 (hPD-1) monomer; assay: SPR (Biacore T200), hPD-1 monomer over anti-hFc-captured hIgG4, 25 C
Procedure: as §1
(§4) The hPD-1 was injected at active concentrations of 0, 10, and 100 nM for three minutes allowing an 18-min dissociation phase. The capture surfaces were regenerated with 75 mM phosphoric acid after each binding cycle.

[16] = target: T2, human PD-1 (hPD-1) monomer; assay: SPR (Biacore T200), hPD-1 monomer over anti-hFc-captured hIgG4, 37 C
Procedure: as §4

T4 sequence (B0LAJ3 entry or part of it limits assumed): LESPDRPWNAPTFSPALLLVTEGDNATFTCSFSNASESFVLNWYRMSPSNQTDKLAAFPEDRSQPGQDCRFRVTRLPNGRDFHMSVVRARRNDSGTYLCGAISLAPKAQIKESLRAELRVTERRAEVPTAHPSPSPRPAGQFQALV
T3 sequence (Q15116 25-167 limits assumed): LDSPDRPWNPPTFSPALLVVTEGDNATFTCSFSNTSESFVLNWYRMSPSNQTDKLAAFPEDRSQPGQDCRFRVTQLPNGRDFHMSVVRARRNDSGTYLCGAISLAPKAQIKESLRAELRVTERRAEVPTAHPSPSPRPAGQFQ
T2 sequence (Q15116 25-167 limits assumed): as above
Chain of human PD-1 on primary human T cells (human) (Q15116 25-288 limits assumed): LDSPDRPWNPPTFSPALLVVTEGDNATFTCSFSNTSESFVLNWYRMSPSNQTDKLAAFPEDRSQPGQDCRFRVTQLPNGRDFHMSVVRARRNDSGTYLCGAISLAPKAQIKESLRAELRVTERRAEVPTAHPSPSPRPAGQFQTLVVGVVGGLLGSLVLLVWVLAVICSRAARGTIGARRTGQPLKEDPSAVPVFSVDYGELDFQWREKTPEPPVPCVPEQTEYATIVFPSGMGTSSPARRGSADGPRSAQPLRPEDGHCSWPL
Chain of cynomolgus monkey PD-1 on primary cynomolgus monkey T cells (cynomolgus monkey) (B0LAJ3 entry or part of it limits assumed): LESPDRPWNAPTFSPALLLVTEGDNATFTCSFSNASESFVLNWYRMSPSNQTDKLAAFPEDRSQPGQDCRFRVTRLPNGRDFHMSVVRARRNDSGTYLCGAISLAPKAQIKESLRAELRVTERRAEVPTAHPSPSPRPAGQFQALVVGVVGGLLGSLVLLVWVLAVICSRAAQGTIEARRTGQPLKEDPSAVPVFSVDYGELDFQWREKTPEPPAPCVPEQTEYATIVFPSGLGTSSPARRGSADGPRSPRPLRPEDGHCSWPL

Which IFNγ (pg/ml), MLR day 5, antibody 0.0001 µg/ml [1] does the source give for “EH12.1 (BD Biosciences mouse anti human anti-PD-1 antibody, mouse isotype IgG1 Kappa)” here?
The IFNγ (pg/ml), MLR day 5, antibody 0.0001 µg/ml was 1700 pg/mL.

What about the IFNγ (pg/ml), MLR day 5, antibody 0.001 µg/ml [1] of the same molecule?
Its IFNγ (pg/ml), MLR day 5, antibody 0.001 µg/ml is 2280 pg/mL.

What about the IFNγ (pg/ml), MLR day 5, antibody 0.01 µg/ml [1] of the same molecule?
The IFNγ (pg/ml), MLR day 5, antibody 0.01 µg/ml was 4380 pg/mL.

And the IFNγ (pg/ml), MLR day 5, antibody 0.1 µg/ml [1]?
Its IFNγ (pg/ml), MLR day 5, antibody 0.1 µg/ml is 4730 pg/mL.

What about the IFNγ (pg/ml), MLR day 5, antibody 1 µg/ml [1] of the same molecule?
The IFNγ (pg/ml), MLR day 5, antibody 1 µg/ml was 9910 pg/mL.

What about the IFNγ (pg/ml), MLR day 5, antibody 10 µg/ml [1] of the same molecule?
The IFNγ (pg/ml), MLR day 5, antibody 10 µg/ml was 15100 pg/mL.

And the TNF (pg/ml), MLR day 5, antibody 0.0001 µg/ml [1]?
The TNF (pg/ml), MLR day 5, antibody 0.0001 µg/ml was 753 pg/mL.

What about the TNF (pg/ml), MLR day 5, antibody 0.001 µg/ml [1] of the same molecule?
The TNF (pg/ml), MLR day 5, antibody 0.001 µg/ml was 687 pg/mL.

What about the TNF (pg/ml), MLR day 5, antibody 0.01 µg/ml [1] of the same molecule?
The TNF (pg/ml), MLR day 5, antibody 0.01 µg/ml was 859 pg/mL.

And the TNF (pg/ml), MLR day 5, antibody 0.1 µg/ml [1]?
The TNF (pg/ml), MLR day 5, antibody 0.1 µg/ml was 745 pg/mL.

And the TNF (pg/ml), MLR day 5, antibody 1 µg/ml [1]?
The TNF (pg/ml), MLR day 5, antibody 1 µg/ml was 979 pg/mL.

What about the TNF (pg/ml), MLR day 5, antibody 10 µg/ml [1] of the same molecule?
The TNF (pg/ml), MLR day 5, antibody 10 µg/ml was 1950 pg/mL.

Which results are given for “Negative control antibody (anti-bovine herpes virus, IgG4-HG framework)”?
% Binding [2]: 0.82%; % Binding [3]: 3.49%; % Binding [4]: 4.36%; % Binding [5]: 4.75%; % Binding [6]: 5.38%; % Binding [7]: 4.67%

B1: mAb2 (antibody, V domains shown)
VH: QVQLVQSGAEVKKPGASVKVSCKASGYTFTSYWINWVRQAPGQGLEWMGNIYPGSSLTNYNEKFKNRVTMTRDTSTSTVYMELSSLRSEDTAVYYCARLLTGTFAYWGQGTLVTVSS
VL: DIVMTQSPDSLAVSLGERATINCKSSQSLWDSGNQKNFLTWYQQKPGQPPKLLIYWTSYRESGVPDRFSGSGSGTDFTLTISSLQAEDVAVYYCQNDYFYPLTFGGGTKVEIK
notes: Variable regions only
How did the Kd [8] turn out when B1 was run?
The Kd was 2.22 nM.

B2: mAb7 Fab (Fab, V domains shown)
VH: B1 VH with L100S
VL: B1 VL with L102H
B2 was tested. Which Kd [9] did it give?
The Kd was < 0.101 nM.

What about the kon [9] of the same molecule?
The kon was 567000 M⁻¹ s⁻¹.

What about the Kd [10] of the same molecule?
Its Kd is < 0.108 nM.

And the kon [10]?
The kon was 526000 M⁻¹ s⁻¹.

And the koff [11]?
Its koff is < 5.7e-05 s⁻¹.

What about the koff [12] of the same molecule?
Its koff is < 5.7e-05 s⁻¹.

B3: mAb1 (antibody, V domains shown)
VH: B1 VH
VL: B1 VL with Y59T
notes: Variable regions only
B3 was tested. Which Kd [8] did it give?
The Kd was 64.2 nM.

B4: mAb14 (antibody, V domains shown)
VH: B1 VH with Y52W
VL: B1 VL
notes: Variable regions only
How did the Kd [8] turn out when B4 was run?
The Kd was 0.6 nM.

B5: mAb5 (antibody, V domains shown)
VH: B1 VH with L100S
VL: B1 VL with Y59T
notes: Variable regions only
With B5 as the molecule, how does the Kd [8] read?
The Kd was 12.8 nM.

B6: mAb11 (antibody, V domains shown)
VH: B1 VH with L57I, L100T
VL: B1 VL with L102H
notes: Variable regions only
How did the Kd [8] turn out when B6 was run?
Its Kd is 0.93 nM.

B7: mAb9 (antibody, V domains shown)
VH: B1 VH with L57I, L100T
VL: B1 VL with Y59T
notes: Variable regions only
How did the Kd [8] turn out when B7 was run?
Its Kd is 13.5 nM.

B8: mAb15 (human IgG4 kappa, hinge stabilized) (antibody, V domains shown)
VH: B1 VH with Y52W
VL: B1 VL with L102H
notes: also called mAb15-G4; mAb15 (G4)
Which results are given for B8?
Kd [8]: 0.49 nM; Kd [13]: < 0.058 nM; kon [13]: 732000 M⁻¹ s⁻¹; koff [14]: < 4.3e-05 s⁻¹; Kd [15]: 0.49 nM; koff [15]: 0.000171 s⁻¹; kon [15]: 349000 M⁻¹ s⁻¹; Kd [16]: 0.54 nM; koff [16]: 0.000373 s⁻¹; kon [16]: 694000 M⁻¹ s⁻¹

B9: mAb8 (antibody, V domains shown)
VH: B1 VH with L100S
VL: B1 VL with G33T, Y59T
notes: Variable regions only
Which Kd [8] does the source give for B9 here?
Its Kd is 17.4 nM.

B10: mAb3 (antibody, V domains shown)
VH: B1 VH
VL: B1 VL with L102H
notes: Variable regions only
B10 was tested. Which Kd [8] did it give?
Its Kd is 1.43 nM.

B11: mAb15 IgG1 AAA (antibody, V domains shown)
VH: B1 VH with Y52W
VL: B1 VL with L102H
notes: also called mAb15-AAA
With B11 as the molecule, how does the Kd [13] read?
Its Kd is < 0.053 nM.

And the kon [13]?
Its kon is 813000 M⁻¹ s⁻¹.

And the koff [14]?
The koff was < 4.3e-05 s⁻¹.

B12: mAb10 (antibody, V domains shown)
VH: B1 VH with L57I, L100T
VL: B1 VL
notes: Variable regions only
With B12 as the molecule, how does the Kd [8] read?
Its Kd is 0.98 nM.

B13: mAb7 IgG1 AAA (antibody, V domains shown)
VH: B1 VH with L100S
VL: B1 VL with L102H
notes: also called mAb7-AAA
With B13 as the molecule, how does the Kd [13] read?
The Kd was < 0.086 nM.

What about the kon [13] of the same molecule?
The kon was 497000 M⁻¹ s⁻¹.

What about the koff [14] of the same molecule?
Its koff is < 4.3e-05 s⁻¹.

B14: mAb16 (antibody, V domains shown)
VH: B1 VH with Y52W
VL: B1 VL with G33T, Y59T
notes: Variable regions only
With B14 as the molecule, how does the Kd [8] read?
The Kd was 7.51 nM.

B15: mAb6 (antibody, V domains shown)
VH: B1 VH with L100S
VL: B1 VL
notes: Variable regions only
For B15, which Kd [8] is on record?
The Kd was 1.16 nM.

B16: mAb15 Fab (Fab, V domains shown)
VH: B1 VH with Y52W
VL: B1 VL with L102H
With B16 as the molecule, how does the Kd [9] read?
Its Kd is < 0.062 nM.

And the kon [9]?
Its kon is 916000 M⁻¹ s⁻¹.

And the Kd [10]?
Its Kd is < 0.069 nM.

And the kon [10]?
Its kon is 824000 M⁻¹ s⁻¹.

What about the koff [11] of the same molecule?
The koff was < 5.7e-05 s⁻¹.

What about the koff [12] of the same molecule?
Its koff is < 5.7e-05 s⁻¹.

B17: mAb13 (antibody, V domains shown)
VH: B1 VH with Y52W
VL: B1 VL with Y59T
notes: Variable regions only
How did the Kd [8] turn out when B17 was run?
Its Kd is 5.87 nM.

B18: mAb12 (antibody, V domains shown)
VH: B1 VH with L57I, L100T
VL: B1 VL with G33T, Y59T
notes: Variable regions only
How did the Kd [8] turn out when B18 was run?
The Kd was 17.3 nM.
